In patent US20170002081A1:

Tests used:
[1] = target: CSF-1R20-512-Fc (R&D Systems cat. 329-MR) (human) (UniProt P07333); test: competition ELISA, post-incubation: coated Fc-D1-D5 human CSF-1R, biotinylated CSF-1(1-444) 1 hour, then mAb 1 hour; streptavidin-HRP
[2] = target: human CSF-1R, full length, on cells (human) (UniProt P07333); test: displacement of 1.5 nM ^125I-H27K15 (competitor) on EL4-CSF-1R cells
[3] = target: CSF-1R20-512-Fc (R&D Systems cat. 329-MR) (human) (UniProt P07333); test: competition ELISA, pre-incubation: coated Fc-D1-D5 human CSF-1R, mAb 1 hour, then biotinylated CSF-1(1-444) 1 hour; streptavidin-HRP
[4] = target: CSF-1R20-512-Fc (R&D Systems cat. 329-MR) (human) (UniProt P07333); test: competition ELISA with biotinylated CSF-1(1-444) on coated CSF-1R-Fc, saturation doses, pre-, co- or post-incubation
[5] = target: CSF-1R20-512-Fc (R&D Systems cat. 329-MR) (human) (UniProt P07333); test: competition ELISA, co-incubation: coated Fc-D1-D5 human CSF-1R, mAb and biotinylated CSF-1(1-444) together 1 hour; streptavidin-HRP
[6] = target: human CSF-1R, full length, on cells (human) (UniProt P07333); test: displacement of 1.5 nM ^125I-H27K15 (competitor) on EL4-CSF-1R cells, Cheng-Prusoff
[7] = target: human CSF-1R, full length, on cells (human) (UniProt P07333); test: displacement of ^125I-H27K15 on EL4-CSF-1R cells

IC50 (read off the curve) [1] [µg/mL]	IC50 [2] [nM]	IC50 (read off the curve) [3] [µg/mL]	decrease of the CSF-1 binding to CSF-1R (%) [4] [%]	IC50 (read off the curve) [5] [µg/mL]	Ki [6] [nM]	Ki [7] [nM]	Substance
0.6	2.18	0.5	30 to 40	1	1.28	> 1	mAb 3291 (murine IgG1, clone 61701, R&D Systems MAB3291) (antibody)
	3.02				1.78	> 1	mAb JF14 (murine IgG1, Santa Cruz sc-80174) (antibody)
